Data: publication PMC11050682, “https://orcid.org/0009-0003-0282-9605 Pérez-Mora Salvador Conceptualization Methodology Software Validation Formal analysis Investigation Data curation Writing – original draft Writing – review & edit”

Target: T1, drEhHSTF5 (dimeric rEhHSTF5, fraction 10) (Entamoeba histolytica, UniProt C4M5X4 1-329)
T1 sequence: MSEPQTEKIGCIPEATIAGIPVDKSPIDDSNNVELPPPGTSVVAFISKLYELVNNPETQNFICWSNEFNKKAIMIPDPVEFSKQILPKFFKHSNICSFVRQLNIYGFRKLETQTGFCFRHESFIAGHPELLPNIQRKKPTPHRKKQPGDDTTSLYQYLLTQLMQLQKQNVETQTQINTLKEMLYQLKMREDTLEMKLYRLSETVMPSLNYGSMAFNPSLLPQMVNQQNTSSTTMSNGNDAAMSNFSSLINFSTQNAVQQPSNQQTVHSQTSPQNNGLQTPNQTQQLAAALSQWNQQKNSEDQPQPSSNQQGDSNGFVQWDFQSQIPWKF
Experiment: competition; 150x molar excess; complex reduced
Settings: protein: recombinant; tags: N-terminal His6 (pET-28a); chain copies: 2; blunt

B1: HSE_EhPgp5 unlabelled (specific competitor) (dsDNA)
DNA 1: ATAGAAATTTTTCATA
DNA 2: TATGAAAAATTTCTAT
Question: Does B1 bind?
Answer: binds
